Assays:
His-SynGAP-EC[1186-1277] = target: T1, His-SynGAP-EC[1186-1277] (Homo sapiens (Human), UniProt Q96PV0 956-1305); experiment: phage display panning, then polyclonal and monoclonal phage ELISA on plate-coated antigen (4 ug/ml)
T1 construct: Expressed in E. coli, purified on nickel resin, 15.75 kDa; also called SYNGAP1 fragment with N-terminal 6His tag
T1 sequence: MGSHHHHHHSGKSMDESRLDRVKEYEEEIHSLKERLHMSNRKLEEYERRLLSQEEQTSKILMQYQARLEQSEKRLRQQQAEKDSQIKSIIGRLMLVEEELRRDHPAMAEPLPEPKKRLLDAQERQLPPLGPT
Description: The concentration of the eluted phages was determined. First, the eluted phages were added to E. Coli TG1. TG1 was poured onto a plate and cultured upside down. The PFU was calculated based on the number of plaques (i.e. dead TG1) on the plate. The eluted phages were added to TG1 followed infection by helper phage and cultured. Phages were precipitated with PEG/NaCl and subsequently resuspended. The phages were screened using a polyclonal ELISA and a monoclonal ELISA. […] ([…]) or control buffer. The coated plate was washed, blocked, washed, and incubated with the amplified eluted phages. Subsequently the plate was washed and incubated with anti-phage-HRP antibody, washed, and incubated with TMB followed by HCL. The result readings were taken at 450 nm. The monoclonal phase ELISA was carried out according to the following. Single TG1 clones randomly selected from plates (described above) were cultured with helper phage. A total of 192 clones from round 3+96 clones from round 4+96 clones from round 5 were selected. The clones were centrifuged and the supernatant (i.e. the phages) were collected. […] The plate was washed, blocked, washed, incubated with the selected phages, washed, incubated with anti-phage-HRP antibody, washed, and incubated with TMB followed by HCL. The results were read of 450 nm.

[1] = target: T2, SYNGAP1-nanoluc-alfa-tag-fusion; experiment: cell-based or functional assay
T2 chain: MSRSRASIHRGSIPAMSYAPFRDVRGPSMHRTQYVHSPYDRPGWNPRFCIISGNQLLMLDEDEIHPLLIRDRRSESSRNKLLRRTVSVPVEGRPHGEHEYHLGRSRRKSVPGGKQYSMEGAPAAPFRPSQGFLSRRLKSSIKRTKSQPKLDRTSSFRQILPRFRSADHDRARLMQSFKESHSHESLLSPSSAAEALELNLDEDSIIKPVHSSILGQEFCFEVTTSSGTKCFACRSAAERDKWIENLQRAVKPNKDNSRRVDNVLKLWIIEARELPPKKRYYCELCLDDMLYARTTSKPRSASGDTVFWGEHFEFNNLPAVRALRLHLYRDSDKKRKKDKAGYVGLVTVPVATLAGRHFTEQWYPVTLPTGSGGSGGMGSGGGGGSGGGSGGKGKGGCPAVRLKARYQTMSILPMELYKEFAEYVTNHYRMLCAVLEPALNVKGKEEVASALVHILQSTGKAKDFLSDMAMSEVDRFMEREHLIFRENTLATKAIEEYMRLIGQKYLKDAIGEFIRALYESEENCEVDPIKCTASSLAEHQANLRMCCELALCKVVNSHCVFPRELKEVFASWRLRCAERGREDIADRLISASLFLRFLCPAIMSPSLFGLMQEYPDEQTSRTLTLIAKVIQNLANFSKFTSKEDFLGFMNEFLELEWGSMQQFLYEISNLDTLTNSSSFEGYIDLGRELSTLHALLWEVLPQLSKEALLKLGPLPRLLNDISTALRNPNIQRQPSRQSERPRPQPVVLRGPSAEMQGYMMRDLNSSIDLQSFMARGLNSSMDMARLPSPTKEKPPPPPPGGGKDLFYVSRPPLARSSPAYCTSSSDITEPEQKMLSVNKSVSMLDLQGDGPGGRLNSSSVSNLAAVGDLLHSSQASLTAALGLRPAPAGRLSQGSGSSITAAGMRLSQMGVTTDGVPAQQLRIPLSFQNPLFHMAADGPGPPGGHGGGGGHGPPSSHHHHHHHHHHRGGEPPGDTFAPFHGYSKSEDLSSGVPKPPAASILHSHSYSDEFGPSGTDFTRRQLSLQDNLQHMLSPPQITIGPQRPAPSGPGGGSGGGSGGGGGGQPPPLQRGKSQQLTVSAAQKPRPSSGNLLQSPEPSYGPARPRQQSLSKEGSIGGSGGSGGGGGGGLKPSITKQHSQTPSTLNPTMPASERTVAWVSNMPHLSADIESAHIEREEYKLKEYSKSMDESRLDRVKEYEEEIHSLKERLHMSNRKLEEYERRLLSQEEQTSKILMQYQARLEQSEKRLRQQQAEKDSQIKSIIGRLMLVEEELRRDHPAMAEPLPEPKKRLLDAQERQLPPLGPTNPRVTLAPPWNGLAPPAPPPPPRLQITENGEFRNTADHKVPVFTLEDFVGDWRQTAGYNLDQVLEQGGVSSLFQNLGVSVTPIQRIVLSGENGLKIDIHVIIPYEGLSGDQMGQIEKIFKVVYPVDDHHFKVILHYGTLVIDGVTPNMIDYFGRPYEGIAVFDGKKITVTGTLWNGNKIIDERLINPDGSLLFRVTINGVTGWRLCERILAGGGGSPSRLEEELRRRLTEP

[2] = target: T3, PYDC2-nanoluc-alfa-tag-fusion; experiment: cell-based or functional assay
T3 chain: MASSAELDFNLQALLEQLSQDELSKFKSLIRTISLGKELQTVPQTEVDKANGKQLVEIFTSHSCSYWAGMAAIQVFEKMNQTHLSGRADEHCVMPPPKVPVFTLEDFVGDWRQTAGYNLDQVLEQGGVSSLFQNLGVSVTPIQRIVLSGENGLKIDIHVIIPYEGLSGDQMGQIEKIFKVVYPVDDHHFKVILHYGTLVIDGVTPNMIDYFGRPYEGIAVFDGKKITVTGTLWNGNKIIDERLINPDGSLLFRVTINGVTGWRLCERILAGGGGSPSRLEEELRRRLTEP

[3] = target: T4, CSTB-nanoluc-alfa-tag-fusion; experiment: cell-based or functional assay
T4 chain: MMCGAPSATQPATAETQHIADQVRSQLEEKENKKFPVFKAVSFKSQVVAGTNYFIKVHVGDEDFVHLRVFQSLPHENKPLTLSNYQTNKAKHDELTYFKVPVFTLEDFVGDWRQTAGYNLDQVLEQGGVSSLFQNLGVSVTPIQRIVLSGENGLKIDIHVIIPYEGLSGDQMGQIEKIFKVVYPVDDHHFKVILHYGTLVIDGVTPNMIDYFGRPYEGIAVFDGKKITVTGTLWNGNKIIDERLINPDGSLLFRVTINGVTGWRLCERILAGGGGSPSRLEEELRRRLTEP

[4] = target: T5, PCBD1-nanoluc-alfa-tag-fusion; experiment: cell-based or functional assay
T5 chain: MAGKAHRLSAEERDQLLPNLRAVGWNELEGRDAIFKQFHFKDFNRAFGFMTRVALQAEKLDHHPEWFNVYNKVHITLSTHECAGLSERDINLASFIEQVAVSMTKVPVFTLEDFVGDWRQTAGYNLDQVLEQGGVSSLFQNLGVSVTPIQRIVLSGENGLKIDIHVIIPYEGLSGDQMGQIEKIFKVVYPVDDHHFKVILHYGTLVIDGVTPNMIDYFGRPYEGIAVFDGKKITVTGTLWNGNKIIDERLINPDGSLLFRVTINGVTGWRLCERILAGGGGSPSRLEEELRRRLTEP

[5] = target: Shank3-nanoluc-alfa-tag-fusion (Homo sapiens (Human), UniProt Q9BYB0 76-1806); experiment: cell-based or functional assay

B1: FLX00157 (VHH)
VHH: QVQLVESGGGLVQAGASLRLSCAASERTFGHYAMGWFRQAPGKEREFVATISWKGGTTGYAHSVKGRFTISRDSAKNMVYLQMNSLKPEDTAVYYCAARNTMSGSMSSSAYPYWGQGTQVTVSS
notes: Camelid VHH from a phage library; also called anti-SynGAP VHH FLX00157; VHH
- binding result (His-SynGAP-EC[1186-1277]): binds

B2: FireflyLuciferase-P2A-a_alfatag_nano-Cezanne (other)
chain: MEDAKNIKKGPAPFYPLEDGTAGEQLHKAMKRYALVPGTIAFTDAHIEVDITYAEYFEMSVRLAEAMKRYGLNTNHRIVVCSENSLQFFMPVLGALFIGVAVAPANDIYNERELLNSMGISQPTVVFVSKKGLQKILNVQKKLPIIQKIIIMDSKTDYQGFQSMYTFVTSHLPPGFNEYDFVPESFDRDKTIALIMNSSGSTGLPKGVALPHRTACVRFSHARDPIFGNQIIPDTAILSVVPFHHGFGMFTTLGYLICGFRVVLMYRFEEELFLRSLQDYKIQSALLVPTLFSFFAKSTLIDKYDLSNLHEIASGGAPLSKEVGEAVAKRFHLPGIRQGYGLTETTSAILITPEGDDKPGAVGKVVPFFEAKVVDLDTGKTLGVNQRGELCVRGPMIMSGYVNNPEATNALIDKDGWLHSGDIAYWDEDEHFFIVDRLKSLIKYKGYQVAPAELESILLQHPNIFDAGVAGLPDDDAGELPAAVVVLEHGKTMTEKEIVDYVASQVTTAKKLRGGVVFVDEVPKGLTGKLDARKIREILIKAKKGGKIAVTRLKGSGATNFSLLKQAGDVEENPGPRSGTGSSGEVQLQESGGGLVQPGGSLRLSCTASGVTISALNAMAMGWYRQAPGERRVMVAAVSERGNAMYRESVQGRFTVTRDFTNKMVSLQMDNLKPEDTAVYYCHVLEDRVDSFHDYWGQGTQVTVSSGAPGSGPPSFSEGSGGSRTPEKGFSDREPTRPPRPILQRQDDIVQEKRLSRGISHASSSIVSLARSHVSSNGGGGGSNEHPLEMPICAFQLPDLTVYNEDFRSFIERDLIEQSMLVALEQAGRLNWWVSVDPTSQRLLPLATTGDGNCLLHAASLGMWGFHDRDLMLRKALYALMEKGVEKEALKRRWRWQQTQQNKESGLVYTEDEWQKEWNELIKLASSEPRMHLGTNGANCGGVESSEEPVYESLEEFHVFVLAHVLRRPIVVVADTMLRDSGGEAFAPIPFGGIYLPLEVPASQCHRSPLVLAYDQAHFSALVSMEQKENTKEQAVIPLTDSEYKLLPLHFAVDPGKGWEWGKDDSDNVRLASVILSLEVKLHLLHSYMNVKWIPLSSDAQAPLAQ
- fold increase in SYNGAP1 protein expression relative to the control (NLuc signal normalised to firefly luciferase signal) [1]: 3.1 fold
- fold increase in PYDC2 protein expression (NLuc signal normalised to firefly luciferase signal) [2]: 2.64 fold
- fold increase in CSTB protein expression (NLuc signal normalised to firefly luciferase signal) [3]: 1.61 fold
- fold increase in PCBD1 protein expression (NLuc signal normalised to firefly luciferase signal) [4]: 1.13 fold
- fold increase in SHANK3 protein expression relative to the control (NLuc signal normalised to firefly luciferase signal) [5]: 2.4 fold

B3: FLX00155 (VHH)
VHH: QVQLVESGGGLVQPGGSLRLSCAASGFAFGSYDMSWVRQAPGQGPEWVSAITPGGGGTFYAYYSDSVKGRFAISRDNAKNTLTLQMNSLKPDDTAMYYCAKNFYGNGGRGHGTQVTVSS
notes: Camelid VHH from a phage library; also called anti-SynGAP VHH FLX00155; VHH
- binding result (His-SynGAP-EC[1186-1277]): binds

B4: FLX00154 (VHH)
VHH: QVQLVESGGGLVQPGGSLRLSCAASGFIFSSYQMAWVRQAPGKGLEWVADINTGGWNTYYADSVKGRFTISRDNAKNTLYLEMNSLKPEDTAVYYCAADRWMVAKIVGGDLDFDSWGQGTQVTVSS
notes: Camelid VHH from a phage library; also called anti-SynGAP VHH FLX00154; VHH
- binding result (His-SynGAP-EC[1186-1277]): binds

B5: FLX00156 (VHH)
VHH: QVQLVESGGGLVQPGGSLRLACAASGFTFGTHAMHWVRWAPGKGFEWVSTISSGGGGTRYADSVKGRFTISRDNAKNTVYLQMDNLKPEDTAVYYCNSPSNIANDNWGQGTQVTVSS
notes: Camelid VHH from a phage library; also called anti-SynGAP VHH FLX00156; VHH
- binding result (His-SynGAP-EC[1186-1277]): binds
